Assay results taken from IntAct's records for PubMed 24508339.

B1: Mitochondrial dynamics protein MID51 (Mus musculus), Q8BGV8 (parent)
chain: MAGAGERKGKKDDNGIGTAIDFVLSNARLVLGVGGAAMLGIATLAVKRMYDRAISAPTSPTRLSHSGKRSWEEPNWMGSPRLLNKDMKAGLSRSLQTLPTDSSAFDTDTFCPPRPKPLARRGQVDLKKSRLRMSLQEKLLSYYRNRAAIPAGEQARAKQAAVDICAELRSFLRAKLPDMPLRDMYLSGSLYDDLQVVTADHIQLIVPLVLEQNLWSCIPGEDTIMNVPGFFLVRRENPEYFPRGSSYWDRCVVGGYLSPKTVADTFEKVVAGSINWPAIGSLLDYVIRPAPPPEALTLEVQYEKDKHLVIDFLPSVTLGDTVLVARPHRLAQYDNLWRLSLRPAETARLRALDQADSGCRSLCLKILKAICKSTPALGHLTASQLTNVILHLAQEEADWSPDMLADRFLQALRGLISYLEAGVLPSALNPKVNLFAELTPQEIDELGYTLYCSLSEPEVLLQT

Variants of: B1
Conditions: with Dnm1l

effect of a mutation on the interaction	Variant
disrupting interaction strength	R234A;R235A;N237A
disrupting interaction strength	V253E;G254E;G255E
decreasing interaction strength	E239A;Y240A;R243A

Variants of: B1
Conditions: with Dnm1l
Remark: another data set of the same source

effect of a mutation on the interaction	Variant
disrupting interaction strength	E239A;Y240A;R243A
